The term stoichiometry N denotes a count of units in the complex or per binding partner.

The data set deals with the molecule itself. Put plainly: SEC-MALLS.

B1: N-terminal fragment of human SNED1 (amino acids 1 to 260, includes the NIDO domain), FLAG-tagged (domain or fragment, UniProt Q8TER0 25-260, looked up)
chain: AVALADFYPFGAERGDAVTPKQDDGGSGLRPLSVPFPFFGAEHSGLYVNNNGIISFLKEVSQFTPVAFPIAKDRCVVAAFWADVDNRRAGDVYYREATDPAMLRRATEDVRHYFPELLDFNATWVFVATWYRVTFFGGSSSSPVNTFQTVLITDGKLSFTIFNYESIVWTTGTHASSGGNATGLGGIAAQAGFNAGDGQRYFSIPGSRTADMAEVETTTNVGVPGRWAFRIDDAQV
modifications: N-glycosylated; phosphorylated on serine and threonine residues (sites not mapped)
In the case of B1, the “stoichiometry N” value came out at 2.

B2: full-length human SNED1 (Sushi, nidogen and EGF-like domain-containing protein 1), FLAG-tagged (natural protein, UniProt Q8TER0 25-1413, looked up)
chain: AVALADFYPFGAERGDAVTPKQDDGGSGLRPLSVPFPFFGAEHSGLYVNNNGIISFLKEVSQFTPVAFPIAKDRCVVAAFWADVDNRRAGDVYYREATDPAMLRRATEDVRHYFPELLDFNATWVFVATWYRVTFFGGSSSSPVNTFQTVLITDGKLSFTIFNYESIVWTTGTHASSGGNATGLGGIAAQAGFNAGDGQRYFSIPGSRTADMAEVETTTNVGVPGRWAFRIDDAQVRVGGCGHTTSVCLALRPCLNGGKCIDDCVTGNPSYTCSCLSGFTGRRCHLDVNECASQPCQNGGTCTHGINSFRCQCPAGFGGPTCETAQSPCDTKECQHGGQCQVENGSAVCVCQAGYTGAACEMDVDDCSPDPCLNGGSCVDLVGNYTCLCAEPFKGLRCETGDHPVPDACLSAPCHNGGTCVDADQGYVCECPEGFMGLDCRERVPDDCECRNGGRCLGANTTLCQCPLGFFGLLCEFEITAMPCNMNTQCPDGGYCMEHGGSYLCVCHTDHNASHSLPSPCDSDPCFNGGSCDAHDDSYTCECPRGFHGKHCEKARPHLCSSGPCRNGGTCKEAGGEYHCSCPYRFTGRHCEIGKPDSCASGPCHNGGTCFHYIGKYKCDCPPGFSGRHCEIAPSPCFRSPCVNGGTCEDRDTDFFCHCQAGYMGRRCQAEVDCGPPEEVKHATLRFNGTRLGAVALYACDRGYSLSAPSRIRVCQPHGVWSEPPQCLEIDECRSQPCLHGGSCQDRVAGYLCLCSTGYEGAHCELERDECRAHPCRNGGSCRNLPGAYVCRCPAGFVGVHCETEVDACDSSPCQHGGRCESGGGAYLCVCPESFFGYHCETVSDPCFSSPCGGRGYCLASNGSHSCTCKVGYTGEDCAKELFPPTALKMERVEESGVSISWNPPNGPAARQMLDGYAVTYVSSDGSYRRTDFVDRTRSSHQLQALAAGRAYNISVFSVKRNSNNKNDISRPAVLLARTRPRPVEGFEVTNVTASTISVQWALHRIRHATVSGVRVSIRHPEALRDQATDVDRSVDRFTFRALLPGKRYTIQLTTLSGLRGEEHPTESLATAPTHVWTRPLPPANLTAARVTATSAHVVWDAPTPGSLLEAYVINVTTSQSTKSRYVPNGKLASYTVRDLLPGRRYQLSVIAVQSTELGPQHSEPAHLYIITSPRDGADRRWHQGGHHPRVLKNRPPPARLPELRLLNDHSAPETPTQPPRFSELVDGRGRVSARFGGSPSKAATVRSQPTASAQLENMEEAPKRVSLALQLPEHGSKDIGNVPGNCSENPCQNGGTCVPGADAHSCDCGPGFKGRRCELACIKVSRPCTRLFSETKAFPVWEGGVCHHVYKRVYRVHQDICFKESCESTSLKKTPNRKQSKSQTLEKS
modifications: N-glycosylated; phosphorylated on serine and threonine residues (sites not mapped)
On to B2, for which the “stoichiometry N” value amounted to 2.

The values above are taken from doi:10.1101/2020.07.27.223107 (bioRxiv, 2020).
